The record followed here is US20220073586A1 (EUTILEX, published 2022).

Changes are numbered by the printed parent chain.

For assay [1], the target named is PD-L1 molecules (Sino, Cat #10084-H08H) (UniProt Q9NZQ7 19-238). The experiment in a line: SPR, Biacore T200; PD-1 Fc fusion fixed on CM5 chip, PD-L1 injected at 3.125-100 nM.
The target of assay [2] is T1, PD-L1 antigen (coated on 96-well immunoplate) (UniProt Q9NZQ7 19-238, limits assumed).
T1 construct: also called antigen PD-L1
Nature of the assay: single antigen ELISA, PD-L1 coated at 1 ug/mL, detection with anti-hFc-HRP. As to the method:
(§1) Briefly, after coating PD-L1 antigen or PD-L2 antigen at a concentration of 1 μg/ml in a 96-well immunoplate at 4° C. overnight, 150 μl of 1× assay buffer (Biolegend) was treated for 1 hour to block non-specific binding. […] The treatment concentration on the antigen PD-L1-coated plate was serially diluted from 30 μg/mL to 3 times to make a total of 15 points, The treatment concentration on the antigen PD-L2 coated plate was serially diluted 3 times from 100 μg/mL to a total of 12 points. Anti-hFc-HRP (Biolegend) was treated with 100 μl at a concentration of 0.4 μg/mL. After incubation for 1 hour, color was developed with TMB, and after 3 minutes, the reaction was stopped using sulfuric acid. Washing was performed 3 times using washing buffer in all processes except for the process after TMB treatment, All processes except for the antigen coating process were carried out at room temperature.

The target in assay [3] is T2, PD-L2 antigen (coated on 96-well immunoplate) (UniProt Q9BQ51 20-220, limits assumed).
T2 construct: also called antigen PD-L2
T2 sequence (looked up): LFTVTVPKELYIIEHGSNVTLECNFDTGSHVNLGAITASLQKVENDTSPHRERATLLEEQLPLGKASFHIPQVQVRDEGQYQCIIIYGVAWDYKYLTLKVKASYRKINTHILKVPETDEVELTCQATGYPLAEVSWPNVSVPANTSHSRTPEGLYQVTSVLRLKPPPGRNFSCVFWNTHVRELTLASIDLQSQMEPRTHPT
Nature of the assay: single antigen ELISA, PD-L2 coated at 1 ug/mL, detection with anti-hFc-HRP. As to the method: as §1

Sequence of PD-L1 molecules (Sino, Cat #10084-H08H) (Q9NZQ7 19-238 limits assumed): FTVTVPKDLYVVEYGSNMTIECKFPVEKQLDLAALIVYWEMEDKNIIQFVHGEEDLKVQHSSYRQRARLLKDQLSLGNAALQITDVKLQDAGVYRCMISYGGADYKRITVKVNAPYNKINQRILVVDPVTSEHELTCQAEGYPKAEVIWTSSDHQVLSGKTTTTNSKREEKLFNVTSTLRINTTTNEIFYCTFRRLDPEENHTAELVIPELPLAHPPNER
T1 sequence (Q9NZQ7 19-238 limits assumed): as above

B1: PD-1.m8 Fc fusion protein (Fc fusion)
chain: FLESPDRPWNAPTFSPALLLVAEGDNATFTCSFSNASESFHVVWHRESPSGQTDTLAAFPEDRSQPGQDHRFRVTRLPNGRDFHMSVVRAQRNDSGTYVCGVISLAPKIQIKESLGAELRVTERRAEVPTAHPSPSPRPAGQFQTLVVGGGGGSSNTKVDKRVEPKSCDKTHTCPPCPAPPVAGPSVFLFPPKPKDTLMISRTPEVTCVVVDVSHEDPEVQFNWYVDGVEVHNAKTKPREEQFNSTFRVVSVLTVVHQDWLNGKEYKCKVSNKGLPAPIEKTISKTKGQPREPQVYTLPPSREEMTKNQVSLTCLVKGFYPSDIAVEWESNGQPENNYKTTPPMLDSDGSFFLYSKLTVDKSRWQQGNVFSCSVMHEALHNHYTQKSLSLSPGK
In assay [1], B1 showed a dissociation constant (Kd) of 1.04 nM, a koff of 0.00182 s⁻¹ and a kon of 1.76e+06 M⁻¹ s⁻¹.

B2: PD-1.m7 Fc fusion protein (Fc fusion)
chain: B1 chain with H70C, Q91R
In assay [1], B2 registered a Kd of 1.1 nM, a dissociation rate constant (koff) of 0.00216 s⁻¹ and an on-rate (kon) of 1.96e+06 M⁻¹ s⁻¹.

B3: euPD-1 Fc fusion protein (Fc fusion)
chain: B1 chain with G116R
For B3, the “EC50 (read off the curve)” value in assay [2] was roughly 0.03 µg/mL. In assay [3], the binding result was “no binding (tested: 100 ug/mL)”. In addition, in assay [1], the dissociation constant Kd came to 0.714 nM, the off-rate constant (koff) came to 0.0013 s⁻¹ and the kon turned out to be 1.82e+06 M⁻¹ s⁻¹.
